Drawing on the Human Domainome abundance scans (Beltran et al. 2025), this text covers abundance fitness for 167 variants.

The chains are these.
B1: SAM and SH3 domain-containing protein 1, residues 630 to 700; numbered along this chain, O94885 (parent)
chain: GRPPQPKSVEDLLDRINLKEHMPTFLFNGYEDLDTFKLLEEEDLDELNIRDPEHRAVLLTAVELLQEYDSN

± gives the uncertainty stated by the source.

Variants of B1 are the subject of this data set. As to the kind of experiment: abundance fitness (aPCA) (normalised: wild type 0, dead -1); higher = more abundant; growth selection in yeast, the domain comes from the species named. The conditions noted are these: Homo sapiens.
For the variant E63G, the abundance fitness was -0.15 ± 0.042.

E63Y: the abundance fitness is -0.687 ± 0.064. As for E63T, the abundance fitness is -0.226 ± 0.04.

With E63K, the abundance fitness was 0.244 ± 0.042.

As for E63R, the abundance fitness amounted to 0.133 ± 0.035. The figure for M22D is -0.749 ± 0.077; for M22H it is -0.313 ± 0.049. Regarding M22Q, the abundance fitness is -0.366 ± 0.056.

On to M22N, for which the abundance fitness is -0.503 ± 0.056. The figure for L38D is -0.175 ± 0.053; for L38H it is 0.029 ± 0.05. On to L38T, for which the abundance fitness is 0.23 ± 0.041. As for G29S, the abundance fitness is -0.834 ± 0.059. For the variant G29Y, the abundance fitness is -0.895 ± 0.1. The figure for G29E is -0.844 ± 0.1; for G29C it is -1.12 ± 0.13. The figure for G29L is -0.907 ± 0.063; for G29I it is -0.893 ± 0.1; for G29F it is -1.2 ± 0.14.

Take G29P: the abundance fitness is -0.967 ± 0.08. The figure for N48W is -0.775 ± 0.15; for N48G it is 0.197 ± 0.057.

For the variant N48D, the abundance fitness is 0.024 ± 0.093. The figure for N48H is -0.056 ± 0.12; for N48P it is -0.837 ± 0.16. The figure for V9M is -0.52 ± 0.07; for V9W it is -1.05 ± 0.17. As for V9A, the abundance fitness is -0.844 ± 0.073.

With V9I, the abundance fitness is -0.235 ± 0.046. V9E: the abundance fitness is -0.876 ± 0.13. The figure for V9C is -0.892 ± 0.13; for V9K it is -0.701 ± 0.077. The figure for V9H is -0.909 ± 0.079; for N71W it is -0.256 ± 0.087; for N71R it is 0.087 ± 0.052.

For the variant N71C, the abundance fitness is -0.009 ± 0.12. The figure for N71I is -0.117 ± 0.054; for N71F it is -0.117 ± 0.082; for N71M it is -0.071 ± 0.072. As for N71K, the abundance fitness was 0.007 ± 0.058. The figure for D51A is -0.659 ± 0.056; for D51Q it is -0.307 ± 0.048; for D51E it is -0.369 ± 0.063. The figure for D51S is -0.49 ± 0.04.

L26V: the abundance fitness worked out at 0.034 ± 0.037. The figure for L26E is -0.188 ± 0.05; for L26Y it is -0.181 ± 0.055; for L26F it is -0.167 ± 0.054. The figure for L26W is -0.533 ± 0.064; for L26D it is -0.667 ± 0.089; for L39F it is -0.973 ± 0.079. The figure for L39V is -0.422 ± 0.049. As to L39A, the abundance fitness was -0.881 ± 0.068. The figure for L39Y is -0.929 ± 0.078; for L39T it is -0.79 ± 0.059; for H54T it is -0.093 ± 0.045.

For H54M, the abundance fitness is -0.501 ± 0.064. The figure for H54N is -0.635 ± 0.064; for H54C it is -0.678 ± 0.058; for H54D it is -0.02 ± 0.044. For L64H, the abundance fitness is 0.222 ± 0.041. As for L64I, the abundance fitness was -0.393 ± 0.054. As for L64D, the abundance fitness stood at 0.33 ± 0.041. Regarding L64V, the abundance fitness is -0.234 ± 0.039. The figure for R2W is -0.643 ± 0.11; for R2E it is -0.634 ± 0.1; for R2C it is -0.971 ± 0.13.

On to R2D, for which the abundance fitness is -0.137 ± 0.063. Take R2Y: the abundance fitness is -0.317 ± 0.069. For the variant R55N, the abundance fitness is -0.891 ± 0.086. On to R55Y, for which the abundance fitness was -0.935 ± 0.093. The figure for E20Y is -0.84 ± 0.1. The figure for E20H is -0.484 ± 0.074. Take E20W: the abundance fitness was -0.879 ± 0.13. In the case of E67R, the abundance fitness is -0.167 ± 0.04.

F36M: the abundance fitness is -0.354 ± 0.063. The figure for F36L is -0.365 ± 0.043; for F36E it is -0.678 ± 0.097; for F36S it is -0.749 ± 0.06.

As to I49L, the abundance fitness is -0.868 ± 0.052.

I49A: the abundance fitness was -0.98 ± 0.072. Consider I49K, for which the abundance fitness is -0.863 ± 0.08.

For the variant D43Y, the abundance fitness is -0.953 ± 0.076. For the variant D43N, the abundance fitness is -0.058 ± 0.044. Regarding D43A, the abundance fitness is -0.325 ± 0.045.

As for D43S, the abundance fitness was -0.359 ± 0.039.

In the case of D43W, the abundance fitness is -0.928 ± 0.097. The figure for D43P is -0.939 ± 0.065; for Y68V it is -0.038 ± 0.043; for Y68G it is 0.168 ± 0.041.

Consider Y68L, for which the abundance fitness is -0.068 ± 0.038. In the case of Y68W, the abundance fitness is -0.056 ± 0.051. As for Y68K, the abundance fitness turned out to be 0.054 ± 0.056. Consider Y68T, for which the abundance fitness is 0.031 ± 0.045. Regarding P6S, the abundance fitness is -0.533 ± 0.049. The figure for P6F is 0.085 ± 0.046. P6I: the abundance fitness was -0.151 ± 0.056.

P6A: the abundance fitness is -0.421 ± 0.056. Regarding P6H, the abundance fitness was -0.607 ± 0.085. The figure for P6Q is -0.726 ± 0.1; for P6Y it is 0.128 ± 0.049; for P6M it is -0.264 ± 0.07. The figure for P6D is -0.158 ± 0.058; for L33N it is -0.764 ± 0.081. The figure for V57A is 0.394 ± 0.037; for V57R it is 0.418 ± 0.034; for V57G it is -0.195 ± 0.049. N17K: the abundance fitness is -0.341 ± 0.051.

Consider N17H, for which the abundance fitness is -0.2 ± 0.049. As for E41L, the abundance fitness was -0.635 ± 0.05. On to E41V, for which the abundance fitness is -0.495 ± 0.056. Consider E41C, for which the abundance fitness was -0.483 ± 0.067.

With E41M, the abundance fitness was -0.578 ± 0.073. On to E41K, for which the abundance fitness was -0.302 ± 0.066. The figure for T24G is -0.713 ± 0.056. As to T24Y, the abundance fitness is -0.98 ± 0.097.

With H21E, the abundance fitness is -0.689 ± 0.09. Take H21I: the abundance fitness is -0.459 ± 0.056. The figure for H21W is -0.248 ± 0.047; for H21K it is -0.712 ± 0.075. The figure for D32A is -0.579 ± 0.056; for D32G it is -0.585 ± 0.055. As for D32Q, the abundance fitness is -0.382 ± 0.047. The figure for D32T is 0.172 ± 0.036; for D32R it is -0.268 ± 0.038; for D32K it is -0.197 ± 0.05.

As for D32L, the abundance fitness was -0.767 ± 0.046. D32W: the abundance fitness is -0.75 ± 0.069. The figure for D69F is -0.811 ± 0.093.

In the case of D69R, the abundance fitness is -0.531 ± 0.058. The figure for D69S is -0.296 ± 0.04; for D69P it is -0.081 ± 0.041; for D69M it is -0.822 ± 0.079. The figure for E40T is 0.398 ± 0.035. Consider E40C, for which the abundance fitness was determined as 0.186 ± 0.042.

As to E40P, the abundance fitness was -0.914 ± 0.075.

On to E40Y, for which the abundance fitness is -0.829 ± 0.069. As for E40R, the abundance fitness is 0.337 ± 0.035. The figure for E40V is -0.088 ± 0.047; for L47F it is -0.828 ± 0.061; for L47Y it is -0.783 ± 0.065.

On to L47C, for which the abundance fitness is -0.577 ± 0.055. Consider L47P, for which the abundance fitness was -0.799 ± 0.066. The figure for K19S is 0.085 ± 0.033. For the variant K19T, the abundance fitness is 0.042 ± 0.036.

With K19F, the abundance fitness is -0.654 ± 0.061.

Regarding K19A, the abundance fitness was -0.055 ± 0.039.

In the case of K19W, the abundance fitness is -0.607 ± 0.072. For K19P, the abundance fitness was -0.279 ± 0.043.

On to K19G, for which the abundance fitness is -0.236 ± 0.051. As to N28H, the abundance fitness stood at 0.109 ± 0.041.

As for N28I, the abundance fitness is -1.08 ± 0.11. With N28D, the abundance fitness was -0.812 ± 0.091. For L18K, the abundance fitness is -0.77 ± 0.077. On to L18V, for which the abundance fitness is -0.742 ± 0.052. On to L18I, for which the abundance fitness is -0.716 ± 0.077. The figure for L18E is -0.797 ± 0.092. As to L18M, the abundance fitness came to 0.158 ± 0.044. The figure for L18W is -0.853 ± 0.089; for R15G it is -0.342 ± 0.049. The figure for R15H is -0.342 ± 0.054; for R15W it is -0.411 ± 0.071. The figure for R15V is -0.381 ± 0.046; for L58Y it is -0.905 ± 0.11. L58T: the abundance fitness is -0.72 ± 0.07. As to L58H, the abundance fitness is -0.53 ± 0.07.

With L58W, the abundance fitness is -0.819 ± 0.11.
